Earlier results as cited in publication PMC3121775.

Molecular target: Harakiri BH3 peptide BH3 (Homo sapiens) (UniProt O00198)
Assay: fluorescence

Bcl-xL, sequence (Q07817 whole entry): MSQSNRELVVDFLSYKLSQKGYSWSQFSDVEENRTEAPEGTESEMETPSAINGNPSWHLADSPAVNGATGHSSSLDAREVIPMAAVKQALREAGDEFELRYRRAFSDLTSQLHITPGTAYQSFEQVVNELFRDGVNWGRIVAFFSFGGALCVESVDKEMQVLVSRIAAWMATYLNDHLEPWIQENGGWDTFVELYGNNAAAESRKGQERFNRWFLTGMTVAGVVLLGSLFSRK

Kd: 92 nM
Substance: Bcl-xL (from UniProt Q07817)
